The data set deals with the molecule itself. The experiment in a line: non-reducing and reducing SDS gel electrophoresis with immunoblot; conditioned medium of BMSCs transduced with AAV-CRLF1; NuPAGE SDS sample buffer without and with reducing agent, 70 °C for 10 min, 10% bis-Tris gels; blotted with antibodies specific for CRLF1 or CLC. On the technique in general: Immunoblotting shows a protein as a band on a membrane.

By stoichiometry N is commonly meant the number of molecules, sites or subunits per partner or assembly.

B1: Cytokine receptor-like factor 1 (CRLF1) (natural protein, human, UniProt O75462 38-422, looked up)
chain: AHTAVISPQDPTLLIGSSLLATCSVHGDPPGATAEGLYWTLNGRRLPPELSRVLNASTLALALANLNGSRQRSGDNLVCHARDGSILAGSCLYVGLPPEKPVNISCWSKNMKDLTCRWTPGAHGETFLHTNYSLKYKLRWYGQDNTCEEYHTVGPHSCHIPKDLALFTPYEIWVEATNRLGSARSDVLTLDILDVVTTDPPPDVHVSRVGGLEDQLSVRWVSPPALKDFLFQAKYQIRYRVEDSVDWKVVDDVSNQTSCRLAGLKPGTVYFVQVRCNPFGIYGSKKAGIWSEWSHPTAASTPRSERPGPGGGACEPRGGEPSSGPVRRELKQFLGWLKKHAYCSNLSFRLYDQWRAWMQKSHKTRNQDEGILPSGRRGTARGPAR
notes: Cytokine receptor-like factor 1, human, full-length cDNA cloned into an AAV vector; released into the medium by BMSCs; Full-length cDNA was cloned into the backbone pENN.AAV.CB7.Cl.eGFP.WPRE.rBG (Addgene 105542 is the vector, not this construct); Bands: ~110 kDa non-reduced, 55 kDa reduced; also called CRLF1dim; CRLF1mon; source: human BMSCs transduced with AAV containing CRLF1, in conditioned …
Take B1: the “stoichiometry N” value amounted to 2.
